The supplement of paper PMC9112550, “Optimization of the antimicrobial peptide Bac7 by deep mutational scanning” (BMC Biology, 2022)

System: Escherichia coli TOP10
Test: shrunken log2 fold change of peptide-encoding DNA abundance (4.5 h post-induction vs induction); higher = less antimicrobial activity (less host growth inhibition)
Conditions: time post-induction: 4.5 h; library: site-saturation at positions 5, 18, 19, 20
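Further: peptides expressed intracellularly from a pBAD plasmid library in pooled LB shake-flask culture, induced with 0.3% L-arabinose, DNA abundance read by NGS, three biological replicates, DESeq2 with apeglm shrinkage.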

| Sequence | shrunken log2 fold change |
| --- | --- |
| RRIRWRPPRLPRPRPRPIDYPRP | -0.235 |
| RRIRCRPPRLPRPRPRPLKCPRP | -0.228 |
| RRIRKRPPRLPRPRPRPACQPRP | 0.0289 |
| RRIRKRPPRLPRPRPRPEPPPRP | 2.92 |
| RRIRWRPPRLPRPRPRPVVPPRP | 0.242 |
| RRIRRRPPRLPRPRPRPLPLPRP | 0.0912 |
| RRIRYRPPRLPRPRPRPRINPRP | -0.196 |
| RRIRSRPPRLPRPRPRPPTDPRP | 0.429 |
| RRIRRRPPRLPRPRPRPDVGPRP | -0.042 |
| RRIRWRPPRLPRPRPRPPLWPRP | 0.558 |
| RRIRWRPPRLPRPRPRPPKTPRP | 0.199 |
| RRIRNRPPRLPRPRPRPNTDPRP | -0.249 |
| RRIRRRPPRLPRPRPRPVDKPRP | 0.0213 |
| RRIRMRPPRLPRPRPRPPMSPRP | -0.114 |
| RRIRARPPRLPRPRPRPCSYPRP | -0.0595 |
| RRIRPRPPRLPRPRPRPDNMPRP | -0.337 |
| RRIRKRPPRLPRPRPRPDFAPRP | -0.033 |
| RRIRDRPPRLPRPRPRPTTFPRP | 0.0301 |
| RRIRRRPPRLPRPRPRPEFVPRP | -0.0836 |
| RRIRLRPPRLPRPRPRPIDCPRP | -0.00194 |
| RRIRKRPPRLPRPRPRPIFNPRP | -0.0554 |
| RRIRARPPRLPRPRPRPAWKPRP | 0.398 |
| RRIRKRPPRLPRPRPRPPTCPRP | 0.217 |
| RRIRFRPPRLPRPRPRPDQCPRP | -0.0562 |
| RRIRCRPPRLPRPRPRPKMRPRP | -0.00909 |

| Sequence | shrunken log2 fold change |
| --- | --- |
| RRIRMRPPRLPRPRPRPRIDPRP | 0.0569 |
| RRIRCRPPRLPRPRPRPPYMPRP | -0.288 |
| RRIRCRPPRLPRPRPRPLDKPRP | -0.328 |
| RRIRIRPPRLPRPRPRPELRPRP | 0.0361 |
| RRIRDRPPRLPRPRPRPTCSPRP | 0.112 |
| RRIRARPPRLPRPRPRPTSIPRP | 0.109 |
| RRIRCRPPRLPRPRPRPEVGPRP | 0.555 |
| RRIRERPPRLPRPRPRPWRDPRP | -0.268 |
| RRIRERPPRLPRPRPRPVGHPRP | -0.000999 |
| RRIRPRPPRLPRPRPRPMQRPRP | 0.195 |
| RRIRPRPPRLPRPRPRPHTIPRP | -0.39 |
| RRIRRRPPRLPRPRPRPYRLPRP | -0.0421 |
| RRIRFRPPRLPRPRPRPPCHPRP | -0.0556 |
| RRIRDRPPRLPRPRPRPRRGPRP | 0.365 |
| RRIRARPPRLPRPRPRPCFYPRP | -0.218 |
| RRIRTRPPRLPRPRPRPHWDPRP | -0.245 |
| RRIRWRPPRLPRPRPRPENAPRP | 0.275 |
| RRIRTRPPRLPRPRPRPHRPPRP | 0.0943 |
| RRIRCRPPRLPRPRPRPPQLPRP | 0.329 |
| RRIRSRPPRLPRPRPRPCFSPRP | -0.378 |
| RRIRNRPPRLPRPRPRPRHYPRP | -0.446 |
| RRIRNRPPRLPRPRPRPLVLPRP | -0.171 |
| RRIRCRPPRLPRPRPRPLVDPRP | 1.58 |
| RRIRRRPPRLPRPRPRPYHKPRP | -0.535 |
| RRIRQRPPRLPRPRPRPKAEPRP | 0.45 |

| Sequence | shrunken log2 fold change |
| --- | --- |
| RRIRKRPPRLPRPRPRPKSSPRP | 0.202 |
| RRIRYRPPRLPRPRPRPPFIPRP | -0.637 |
| RRIRWRPPRLPRPRPRPHPPPRP | 0.348 |
| RRIRWRPPRLPRPRPRPIDLPRP | 0.0151 |
| RRIRPRPPRLPRPRPRPHNIPRP | -0.546 |
| RRIRYRPPRLPRPRPRPTVDPRP | 0.0546 |
| RRIRWRPPRLPRPRPRPIPLPRP | -0.121 |
| RRIRKRPPRLPRPRPRPCAKPRP | 0.54 |
| RRIRRRPPRLPRPRPRPWYKPRP | -0.371 |
| RRIRDRPPRLPRPRPRPLMAPRP | 1.09 |
| RRIRCRPPRLPRPRPRPCLFPRP | -0.333 |
| RRIRYRPPRLPRPRPRPAATPRP | 0.208 |
| RRIRWRPPRLPRPRPRPWVIPRP | 0.00419 |
| RRIRCRPPRLPRPRPRPPWGPRP | 0.122 |
| RRIRWRPPRLPRPRPRPSVCPRP | 0.104 |
| RRIRDRPPRLPRPRPRPFYQPRP | -0.276 |
| RRIRHRPPRLPRPRPRPGPGPRP | 0.282 |
| RRIRRRPPRLPRPRPRPFNNPRP | 0.221 |
| RRIRCRPPRLPRPRPRPKKVPRP | -0.00128 |
| RRIRWRPPRLPRPRPRPVHVPRP | 0.109 |
| RRIRDRPPRLPRPRPRPHFRPRP | -0.121 |
| RRIRSRPPRLPRPRPRPLTDPRP | -0.162 |
| RRIRPRPPRLPRPRPRPHIEPRP | -0.646 |
| RRIRTRPPRLPRPRPRPPRGPRP | 0.607 |
| RRIRDRPPRLPRPRPRPIGHPRP | 0.012 |

| Sequence | shrunken log2 fold change |
| --- | --- |
| RRIRTRPPRLPRPRPRPMARPRP | 0.193 |
| RRIRHRPPRLPRPRPRPSQDPRP | -0.032 |
| RRIRKRPPRLPRPRPRPLPEPRP | 0.351 |
| RRIRMRPPRLPRPRPRPVAHPRP | 0.148 |
| RRIRDRPPRLPRPRPRPYYCPRP | 0.0391 |
| RRIRQRPPRLPRPRPRPKVCPRP | -0.193 |
| RRIRARPPRLPRPRPRPTWPPRP | 1.13 |
| RRIRSRPPRLPRPRPRPIIMPRP | -0.35 |
| RRIRDRPPRLPRPRPRPKFNPRP | -0.236 |
| RRIRKRPPRLPRPRPRPRHSPRP | 0.152 |
| RRIRWRPPRLPRPRPRPPSSPRP | 0.778 |
| RRIRDRPPRLPRPRPRPKTAPRP | 0.00938 |
| RRIRERPPRLPRPRPRPNVCPRP | -0.382 |
| RRIRDRPPRLPRPRPRPVCGPRP | 0.979 |
| RRIRWRPPRLPRPRPRPGPFPRP | 0.125 |
| RRIRVRPPRLPRPRPRPWIYPRP | 0.0875 |
| RRIRGRPPRLPRPRPRPTMAPRP | 1.24 |
| RRIRVRPPRLPRPRPRPTKKPRP | -0.0633 |
| RRIRARPPRLPRPRPRPCIIPRP | -0.076 |
| RRIRCRPPRLPRPRPRPCMRPRP | 0.0312 |
| RRIRQRPPRLPRPRPRPMKFPRP | -0.21 |
| RRIRNRPPRLPRPRPRPTWVPRP | 0.0257 |
| RRIRSRPPRLPRPRPRPRTHPRP | 0.181 |
| RRIRCRPPRLPRPRPRPYNMPRP | -0.188 |
| RRIRGRPPRLPRPRPRPNVPPRP | 0.0564 |

| Sequence | shrunken log2 fold change |
| --- | --- |
| RRIRWRPPRLPRPRPRPFWEPRP | 0.121 |
| RRIRQRPPRLPRPRPRPKTHPRP | -0.389 |
| RRIRERPPRLPRPRPRPEVMPRP | 0.378 |
| RRIRVRPPRLPRPRPRPHCTPRP | -1.21 |
| RRIRERPPRLPRPRPRPPYEPRP | -0.296 |
| RRIRVRPPRLPRPRPRPGKSPRP | -0.0236 |
| RRIRTRPPRLPRPRPRPKMHPRP | -0.0762 |
| RRIRFRPPRLPRPRPRPIRNPRP | -0.0537 |
| RRIRKRPPRLPRPRPRPPGGPRP | 0.811 |
| RRIRERPPRLPRPRPRPLKNPRP | -0.477 |
| RRIRFRPPRLPRPRPRPIILPRP | -1.74 |
| RRIRARPPRLPRPRPRPVGFPRP | 0.516 |
| RRIRYRPPRLPRPRPRPCALPRP | -0.671 |
| RRIRIRPPRLPRPRPRPETTPRP | -0.0691 |
| RRIRPRPPRLPRPRPRPGNDPRP | -0.0392 |
| RRIRGRPPRLPRPRPRPAHWPRP | 0.378 |
| RRIRFRPPRLPRPRPRPAKIPRP | 0.117 |
| RRIRKRPPRLPRPRPRPGSTPRP | 0.131 |
| RRIRKRPPRLPRPRPRPWPVPRP | 0.47 |
| RRIRDRPPRLPRPRPRPKGHPRP | 0.0517 |
| RRIRDRPPRLPRPRPRPNMPPRP | -0.497 |
| RRIRERPPRLPRPRPRPALHPRP | 0.247 |
| RRIRKRPPRLPRPRPRPFAQPRP | 0.177 |
| RRIRARPPRLPRPRPRPPDIPRP | 0.289 |
| RRIRWRPPRLPRPRPRPRRSPRP | 0.492 |

| Sequence | shrunken log2 fold change |
| --- | --- |
| RRIRTRPPRLPRPRPRPSVAPRP | 0.00143 |
| RRIRRRPPRLPRPRPRPRNQPRP | -0.0577 |
| RRIRFRPPRLPRPRPRPTGGPRP | 0.259 |
| RRIRARPPRLPRPRPRPSSWPRP | 0.158 |
| RRIRPRPPRLPRPRPRPKIKPRP | -0.0894 |
| RRIRMRPPRLPRPRPRPIAKPRP | 0.494 |
| RRIRIRPPRLPRPRPRPGGKPRP | -0.31 |
| RRIRERPPRLPRPRPRPNNKPRP | -0.849 |
| RRIRSRPPRLPRPRPRPNHVPRP | -0.803 |
| RRIRFRPPRLPRPRPRPIWSPRP | 0.0199 |
| RRIRQRPPRLPRPRPRPLKCPRP | -0.139 |
| RRIRTRPPRLPRPRPRPVVYPRP | -0.418 |
| RRIRCRPPRLPRPRPRPLRYPRP | 0.246 |
| RRIRVRPPRLPRPRPRPSKIPRP | -0.0852 |
| RRIRVRPPRLPRPRPRPGPDPRP | 0.465 |
| RRIRERPPRLPRPRPRPPHSPRP | 0.0332 |
| RRIRWRPPRLPRPRPRPVMAPRP | 0.171 |
| RRIRNRPPRLPRPRPRPLFQPRP | -0.421 |
| RRIRHRPPRLPRPRPRPNPVPRP | -0.312 |
| RRIRFRPPRLPRPRPRPQPMPRP | 0.302 |
| RRIRGRPPRLPRPRPRPFIYPRP | 0.0217 |
| RRIRMRPPRLPRPRPRPQRWPRP | 0.637 |
| RRIRTRPPRLPRPRPRPILLPRP | -0.658 |
| RRIRVRPPRLPRPRPRPVKNPRP | 0.118 |
| RRIRFRPPRLPRPRPRPRTFPRP | -0.179 |
